What was measured:
[1] = target: T1, hOrai1-mOrai1 ECL2 (GAA) protein (human/mouse chimera, UniProt Q96D31 1-301); assay: FACS, 293EBNA; set-up: concentration or dose not given beside the values
T1 construct: also called Ch
Description: (§1) FIG. 17A-D illustrates the results of FACS analysis showing binding to the indicated mOrai1-hOrai1 ECL2 chimeric mutants expressed on the surface of HEK-293-EBNA cells. Transfected cells were stained first with recombinant monoclonal antibodies then counter-stained with a secondary phycoerythrin-labeled goat (“Gt”) anti-human (“Hu”) IgG F(ab′)₂ antibody fragment and visualized using FACS.
(§2) Representative results of FACS analysis of binding to the mutant hOrai1-mOrai1 ECL2 chimera described above by exemplary anti-hOrai1 antibodies of the present invention are shown in FIG. 17A-D, Table 10A and Table 10B below. Table 10A (Campaign 1) and Table 10B (Campaign 2) show the gain in binding ability of exemplary monoclonal antibodies to hOrai 1-mOrai 1 ECL2 chimera mutants as determined by FACS.

[2] = target: T2, hOrai1-mOrai1 ECL2 (VST) protein (human/mouse chimera, UniProt Q96D31 1-301); assay: FACS, 293EBNA; set-up: concentration or dose not given beside the values
T2 construct: also called Ch
Description: as §1, §2

[3] = target: T3, hOrai1-mOrai1 ECL2 (…) protein (human/mouse chimera, UniProt Q96D31 1-301); assay: FACS, 293EBNA; set-up: concentration or dose not given beside the values
T3 construct: also called Ch
Description: as §1, §2

[4] = target: T4, hOrai1-mOrai1 ECL2 (PASGAA) protein (human/mouse chimera, UniProt Q96D31 1-301); assay: FACS, 293EBNA; set-up: concentration or dose not given beside the values
T4 construct: also called Ch
Description: as §1, §2

[5] = target: T5, hOrai1-mOrai1 ECL2 (AANVST) protein (human/mouse chimera, UniProt Q96D31 1-301); assay: FACS, 293EBNA; set-up: concentration or dose not given beside the values
T5 construct: also called Ch
Description: as §1, §2

[6] = target: T6, hOrai1-mOrai1 ECL2 chimeric protein (human/mouse chimera, UniProt Q96D31 1-301); assay: FACS, 293EBNA; set-up: concentration or dose not given beside the values
T6 construct: human Orai1 with mouse ECL2; also called Ch
Description: as §1, §2

human Orai2 = target: T7, human Orai2 (human, UniProt Q96SN7 1-254); assay: FACS, 293EBNA transfectants
T7 construct: also called hOrai2
Experimental: (§3) Purified monoclonal antibodies from hybridoma supernantants of the subclones derived from initial hits were assessed for binding to human Orai1, Orai2 and Orai3 expressed on HEK-293-EBNA cells along with vector transfected control parental cells. Cells stained with or without primary mAbs were counter-stained with a secondary phycoerythrin-labeled goat (“Gt”) anti-human (“Hu”) IgG F(ab′)₂ antibody fragment and visualized using FACS.
(§4) FACS binding analysis. Transfected 293EBNA cells transiently expressed hOrai1, human Orai2, or human Orai3 (results of binding comparison in FIG. 11A-B), or hOrai1(S218G) (results of binding comparison in FIG. 12A-B); or hOrai1 and hSTIM1; mOrai1 and mouse STIM1; or rat Orai1 and rat STIM1 (results of binding comparison in FIG. 13). The transfected cells were harvested at 48 hours post-transfection. Cells transfected with pcDNA3.1 were used as negative controls. Cells were washed once with ice-cold 1×PBS, resuspended in ice-cold FACS buffer (1×D-PBS+2% goat serum), and 2×10⁵ cells in […] were stained per antibody combination. All antibody incubation steps were performed on ice for 1 hour. […] Next, the unlabelled antibody was detected using goat F(ab′)₂ anti-mouse or anti-human IgG-phycoerythrin (IgG-PE), followed by a wash with 200 μL of ice-cold FACS buffer before flow cytometry analysis. Unstained cells and cells stained with detecting antibodies were used as negative controls. The values of relative level of fluorescence were calculated using FCS Express (De Novo Software) and mean values were calculated using log-transformed data (geometric mean). Purified mAbs were assessed by FACS assay for their ability to specifically bind human Orai1, Orai2 and Orai3 proteins expressed on HEK-293 cells.

human Orai3 = human Orai3 (human, UniProt Q9BRQ5 1-295); assay: FACS, 293EBNA transfectants
Experimental: as §3, §4

rat Orai1 = target: T8, rat Orai1 (rat, UniProt Q5M848 1-304); assay: FACS, 293EBNA transfectants with STIM1, thapsigargin
T8 construct: co-expressed with rat STIM1; also called rOrai1
Experimental: (§5) FIG. 13A-B illustrates the results of FACS analysis showing binding to human Orai1 expressed on the surface of HEK-293-EBNA cells that were treated with 2 μM Thapsigargin. HEK-293-EBNA cells were transiently transfected with human Orai1 and human STIM1, mouse Orai1 and mouse STIM1, rat Orai1 and rat STIM1 and control empty vector. Transfected cells were stained first with recombinant monoclonal antibodies then counter-stained with a secondary phycoerythrin-labeled Gt anti-Hu IgG F(ab′)₂ or Gt anti-Mu IgG F(ab′)₂ antibody fragment, as appropriate, and visualized using FACS.
as §4

mouse Orai1 = target: T9, mouse Orai1 (mouse, UniProt Q8BWG9 1-304); assay: as above
T9 construct: co-expressed with mouse STIM1; also called mOrai1
Experimental: as §5, §4

[7] = target: T10, mOrai1-hOrai1 ECL2 (…) protein (human/mouse chimera, UniProt Q8BWG9 1-304 (mouse entry)); assay: flow cytometry on HEK-293 cells transfected with the chimera (loss of binding experiment)
T10 construct: also called Ch
T10 sequence (Q8BWG9 other isoform, or with tags, fused parts or gaps): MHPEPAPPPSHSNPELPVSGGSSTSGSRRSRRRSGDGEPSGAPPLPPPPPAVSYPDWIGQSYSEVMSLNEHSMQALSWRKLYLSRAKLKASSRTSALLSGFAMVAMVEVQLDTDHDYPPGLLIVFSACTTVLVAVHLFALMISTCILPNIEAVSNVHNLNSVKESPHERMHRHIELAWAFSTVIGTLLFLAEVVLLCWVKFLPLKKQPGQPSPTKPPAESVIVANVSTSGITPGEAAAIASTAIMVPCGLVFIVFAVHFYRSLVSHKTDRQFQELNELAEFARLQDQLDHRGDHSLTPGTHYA

[8] = target: T11, mOrai1-hOrai1 ECL2 (SPTKPPAE) protein (human/mouse chimera, UniProt Q8BWG9 1-304 (mouse entry)); assay: as above
T11 construct: also called Ch

[9] = target: T12, mOrai1-hOrai1 ECL2 (…) protein (human/mouse chimera, UniProt Q8BWG9 1-304 (mouse entry)); assay: as above; remark: listed apart in the source
T12 construct: also called Ch
T12 sequence (Q8BWG9 other isoform, or with tags, fused parts or gaps): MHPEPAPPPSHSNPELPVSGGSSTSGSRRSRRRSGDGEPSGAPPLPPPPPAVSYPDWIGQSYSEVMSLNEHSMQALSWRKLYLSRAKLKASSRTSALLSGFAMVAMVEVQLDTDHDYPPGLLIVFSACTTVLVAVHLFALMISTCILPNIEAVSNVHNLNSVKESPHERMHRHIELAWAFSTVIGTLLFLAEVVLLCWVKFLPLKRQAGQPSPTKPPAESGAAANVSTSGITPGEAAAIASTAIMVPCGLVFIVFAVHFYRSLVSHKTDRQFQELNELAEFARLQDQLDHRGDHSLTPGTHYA

[10] = target: T13, mOrai1-hOrai1 ECL2 (…) protein (human/mouse chimera, UniProt Q8BWG9 1-304 (mouse entry)); assay: as above; remark: listed apart in the source
T13 construct: also called Ch
T13 sequence (Q8BWG9 other isoform, or with tags, fused parts or gaps): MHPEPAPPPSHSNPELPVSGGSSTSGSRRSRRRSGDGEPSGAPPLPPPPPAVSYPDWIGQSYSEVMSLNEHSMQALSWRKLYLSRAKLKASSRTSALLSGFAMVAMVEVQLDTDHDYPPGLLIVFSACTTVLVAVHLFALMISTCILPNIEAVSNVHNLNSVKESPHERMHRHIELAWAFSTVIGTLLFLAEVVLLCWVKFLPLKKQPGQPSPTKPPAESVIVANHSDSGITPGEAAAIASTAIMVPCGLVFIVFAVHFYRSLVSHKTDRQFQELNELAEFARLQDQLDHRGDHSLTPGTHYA

[11] = target: T14, mOrai1-hOrai1 ECL2 (KPPAE) protein (human/mouse chimera, UniProt Q8BWG9 1-304 (mouse entry)); assay: as above
T14 construct: also called Ch

human Orai1 = human Orai1 (human, UniProt Q96D31 1-301); assay: cell-based or functional assay
[12] = target: T15, mOrai1-hOrai1 ECL2 (…) protein (human/mouse chimera, UniProt Q8BWG9 1-304 (mouse entry)); assay: flow cytometry on HEK-293 cells transfected with the chimera (loss of binding experiment); remark: listed apart in the source
T15 construct: also called Ch
T15 sequence (Q8BWG9 other isoform, or with tags, fused parts or gaps): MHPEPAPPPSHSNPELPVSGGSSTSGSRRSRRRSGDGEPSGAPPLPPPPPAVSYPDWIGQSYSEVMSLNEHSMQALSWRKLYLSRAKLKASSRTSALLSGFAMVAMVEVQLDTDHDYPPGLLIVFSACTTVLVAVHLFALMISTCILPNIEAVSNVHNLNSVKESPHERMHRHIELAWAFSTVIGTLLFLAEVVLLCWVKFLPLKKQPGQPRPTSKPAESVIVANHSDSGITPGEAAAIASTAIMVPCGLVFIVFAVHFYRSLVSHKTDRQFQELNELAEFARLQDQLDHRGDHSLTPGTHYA

[13] = target: T16, mOrai1-hOrai1 ECL2 (AESVIV) protein (human/mouse chimera, UniProt Q8BWG9 1-304 (mouse entry)); assay: as above
T16 construct: also called Ch
T16 sequence (Q8BWG9 other isoform, or with tags, fused parts or gaps): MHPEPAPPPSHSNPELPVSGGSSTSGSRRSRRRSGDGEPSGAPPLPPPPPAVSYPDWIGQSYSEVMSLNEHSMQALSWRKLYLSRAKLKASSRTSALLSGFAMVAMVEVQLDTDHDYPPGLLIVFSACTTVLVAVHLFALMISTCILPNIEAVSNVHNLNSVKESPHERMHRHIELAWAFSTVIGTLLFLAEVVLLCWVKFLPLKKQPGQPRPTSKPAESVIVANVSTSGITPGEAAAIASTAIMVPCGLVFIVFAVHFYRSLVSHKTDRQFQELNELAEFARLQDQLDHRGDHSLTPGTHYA

T14 sequence (Q8BWG9 other isoform, or with tags, fused parts or gaps): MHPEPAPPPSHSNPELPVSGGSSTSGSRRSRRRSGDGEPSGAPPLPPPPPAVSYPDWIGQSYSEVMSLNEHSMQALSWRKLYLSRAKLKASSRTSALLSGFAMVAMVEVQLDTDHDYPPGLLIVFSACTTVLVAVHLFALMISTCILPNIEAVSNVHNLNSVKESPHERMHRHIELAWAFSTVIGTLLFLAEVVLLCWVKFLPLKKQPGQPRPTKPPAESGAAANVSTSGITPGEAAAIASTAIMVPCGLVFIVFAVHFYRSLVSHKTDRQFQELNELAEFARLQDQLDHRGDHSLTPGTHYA
Sequence of human Orai1 (Q96D31 whole entry): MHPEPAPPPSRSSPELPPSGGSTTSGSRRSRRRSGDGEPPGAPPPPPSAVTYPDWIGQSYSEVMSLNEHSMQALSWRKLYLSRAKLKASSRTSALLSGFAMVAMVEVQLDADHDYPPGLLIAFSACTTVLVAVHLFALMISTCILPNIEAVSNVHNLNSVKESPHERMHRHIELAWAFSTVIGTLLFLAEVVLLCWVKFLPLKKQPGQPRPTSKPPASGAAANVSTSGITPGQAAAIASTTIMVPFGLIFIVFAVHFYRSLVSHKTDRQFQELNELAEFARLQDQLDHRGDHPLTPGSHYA
T9 sequence (Q8BWG9 whole entry): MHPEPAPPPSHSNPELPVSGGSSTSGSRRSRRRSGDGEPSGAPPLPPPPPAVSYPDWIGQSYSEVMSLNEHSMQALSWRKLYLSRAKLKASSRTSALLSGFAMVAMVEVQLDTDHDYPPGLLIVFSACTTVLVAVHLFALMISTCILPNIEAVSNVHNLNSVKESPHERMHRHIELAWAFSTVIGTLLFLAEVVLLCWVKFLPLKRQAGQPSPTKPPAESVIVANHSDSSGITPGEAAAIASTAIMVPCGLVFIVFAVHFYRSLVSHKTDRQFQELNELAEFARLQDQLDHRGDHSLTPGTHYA
T7 sequence (Q96SN7 whole entry): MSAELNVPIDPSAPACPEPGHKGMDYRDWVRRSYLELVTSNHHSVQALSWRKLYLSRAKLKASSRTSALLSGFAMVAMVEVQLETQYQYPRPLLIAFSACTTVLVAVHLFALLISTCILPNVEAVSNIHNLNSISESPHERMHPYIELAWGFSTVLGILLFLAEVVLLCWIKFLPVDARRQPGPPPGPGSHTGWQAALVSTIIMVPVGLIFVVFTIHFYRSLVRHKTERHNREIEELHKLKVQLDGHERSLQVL
T8 sequence (Q5M848 whole entry): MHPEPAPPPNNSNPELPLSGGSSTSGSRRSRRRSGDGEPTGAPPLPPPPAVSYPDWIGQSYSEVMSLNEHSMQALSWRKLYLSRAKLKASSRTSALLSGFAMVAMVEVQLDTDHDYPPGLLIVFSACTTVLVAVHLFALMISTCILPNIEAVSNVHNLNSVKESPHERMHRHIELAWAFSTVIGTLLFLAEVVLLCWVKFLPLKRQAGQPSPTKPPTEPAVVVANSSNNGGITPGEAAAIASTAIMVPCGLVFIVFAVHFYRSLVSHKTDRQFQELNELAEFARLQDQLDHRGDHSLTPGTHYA
T11 sequence (Q8BWG9 other isoform, or with tags, fused parts or gaps): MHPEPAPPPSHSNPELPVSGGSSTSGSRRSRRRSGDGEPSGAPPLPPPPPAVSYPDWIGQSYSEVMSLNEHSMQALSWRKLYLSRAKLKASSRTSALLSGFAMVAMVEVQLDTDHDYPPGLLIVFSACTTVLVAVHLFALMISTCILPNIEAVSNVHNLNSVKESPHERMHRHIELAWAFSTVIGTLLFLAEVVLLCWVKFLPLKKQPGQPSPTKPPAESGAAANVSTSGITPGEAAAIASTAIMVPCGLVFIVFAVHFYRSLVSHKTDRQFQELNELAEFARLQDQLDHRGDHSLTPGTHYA
T2 sequence (Q96D31 other isoform, or with tags, fused parts or gaps): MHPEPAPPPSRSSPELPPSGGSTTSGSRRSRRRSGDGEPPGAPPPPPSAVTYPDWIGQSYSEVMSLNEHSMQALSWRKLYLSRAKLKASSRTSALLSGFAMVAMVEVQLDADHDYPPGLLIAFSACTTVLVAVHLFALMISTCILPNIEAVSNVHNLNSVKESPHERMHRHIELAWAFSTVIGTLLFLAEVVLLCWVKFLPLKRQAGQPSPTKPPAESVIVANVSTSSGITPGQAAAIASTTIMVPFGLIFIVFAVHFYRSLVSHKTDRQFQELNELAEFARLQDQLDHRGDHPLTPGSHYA
T4 sequence (Q96D31 other isoform, or with tags, fused parts or gaps): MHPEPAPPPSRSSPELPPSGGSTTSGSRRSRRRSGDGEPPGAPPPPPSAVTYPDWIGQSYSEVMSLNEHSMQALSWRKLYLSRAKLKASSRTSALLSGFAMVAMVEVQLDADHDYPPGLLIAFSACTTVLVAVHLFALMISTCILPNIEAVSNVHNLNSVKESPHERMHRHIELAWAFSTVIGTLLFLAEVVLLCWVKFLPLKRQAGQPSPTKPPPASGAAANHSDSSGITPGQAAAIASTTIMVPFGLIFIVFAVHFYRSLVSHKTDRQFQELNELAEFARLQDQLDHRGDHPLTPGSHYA
T1 sequence (Q96D31 other isoform, or with tags, fused parts or gaps): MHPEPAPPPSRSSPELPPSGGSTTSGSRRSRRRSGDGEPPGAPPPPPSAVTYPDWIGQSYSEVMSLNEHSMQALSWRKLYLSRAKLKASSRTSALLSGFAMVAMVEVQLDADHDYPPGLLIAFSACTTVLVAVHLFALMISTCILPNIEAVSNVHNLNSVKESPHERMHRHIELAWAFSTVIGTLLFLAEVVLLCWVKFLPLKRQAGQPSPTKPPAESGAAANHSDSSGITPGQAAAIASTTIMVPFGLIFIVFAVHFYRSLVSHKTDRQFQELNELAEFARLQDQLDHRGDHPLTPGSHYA
T6 sequence (Q96D31 other isoform, or with tags, fused parts or gaps mutant): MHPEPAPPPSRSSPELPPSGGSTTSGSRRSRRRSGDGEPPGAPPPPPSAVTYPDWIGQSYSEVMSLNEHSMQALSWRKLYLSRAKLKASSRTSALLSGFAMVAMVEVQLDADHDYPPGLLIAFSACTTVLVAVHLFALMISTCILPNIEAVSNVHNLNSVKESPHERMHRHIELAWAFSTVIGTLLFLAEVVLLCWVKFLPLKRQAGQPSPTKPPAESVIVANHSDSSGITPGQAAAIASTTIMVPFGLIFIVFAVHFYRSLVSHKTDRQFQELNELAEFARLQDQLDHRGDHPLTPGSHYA
T5 sequence (Q96D31 other isoform, or with tags, fused parts or gaps): as the sequence (Q96D31 other isoform, or with tags, fused parts or gaps mutant) above, with V221A, H224V, D226T counted along it
T3 sequence (Q96D31 other isoform, or with tags, fused parts or gaps): as the sequence (Q96D31 other isoform, or with tags, fused parts or gaps mutant) above, with A216P, E217A, V219G, I220A, V221A, H224V, D226T counted along it

Binder	percent of control (POC) of FACS Geo Mean [1] [%]	percent of control (POC) of FACS Geo Mean [2] [%]	percent of control (POC) of FACS Geo Mean [3] [%]	percent of control (POC) of FACS Geo Mean [4] [%]	percent of control (POC) of FACS Geo Mean [5] [%]	percent of control (POC) of FACS Geo Mean [6] [%]	binding result (human Orai2)	binding result (human Orai3)	binding result (rat Orai1)	binding result (mouse Orai1)	binding result [7]	binding result [8]	binding result [9]	binding result [10]	binding result [11]	further results
mAb 5B1.1 (antibody, human IgG2, lambda, V domains shown, fully human IgG2 lambda, Campaign 2; also called mAb 5Bl1.1) VH: QVQLVQSGAEVKKPGASVKVSCKASGYTFTDYYINWVRQAPGQGLEWMGWINPNSGGSSYAQKFQGRVTMTRDTSISTAHMELIRLRSDDTAVYYCARERGGIEDWFDPWGQGTLVTVSS VL: QSVLTQPPSVSGAPGQRVTISCTGSSSNIGAGYDVHWYQQLPGTAPKLLIYGNSNRPSGVPDRFSGSKSGTSASLAITKFQAEDEAVYYCQSYGSGLSGVVFGGGTKLTVLG	< 1	< 1	< 1	< 1	< 1	< 1	no binding (tested: 1 µg)	no binding (tested: 1 µg)	no binding (tested: 1 µg)	no binding (tested: 1 µg)	no binding	no binding	no binding	no binding	no binding	IC50 IFN-γ, whole blood Donor A (human Orai1): 7.4 nM; IC50 IFN-γ, whole blood Donor B (human Orai1): 10.7 nM; IC50 IL-2, whole blood Donor A (human Orai1): 2.73 nM; IC50 IL-2, whole blood Donor B (human Orai1): 4.45 nM
mAb 2D2.1 (antibody, human IgG2, lambda, V domains shown, fully human IgG2 lambda, Campaign 1; also called mAb 2D.1) VH: QVQLQQWGAGLLKPSETLSLTCAVYGGSFSGYYWSWIRQPPGKGLEWIGEIDHSGRINYNPALKSRLTISVDTSKNQFSLKLSSVTAADTAVYYCARAGSGGYEDWFDPWGQGTLVTVSS VL: QSVLTQPPSVSGAPGQRVTISCTGSSSNIGAGYNVHWYQQFPRTDPKLLIYVYNIRPSGVPDRFSGSRSGTSASLAITGLQTEDEADYYCQSYDSSLSGVVFGGGTKLTVLG	< 1	< 1	< 1	< 1	< 1	< 1	no binding (tested: 1 µg)	no binding (tested: 1 µg)	no binding (tested: 1 µg)	no binding (tested: 1 µg)	no binding	no binding	no binding	no binding	no binding	
mAb 2B7.1 (antibody, human IgG2, V domains shown, fully human, Campaign 1) VH: QVQLQQWGAGLLKPSETLSLTCAVYGGSFSGYYWSWIRQPPGKGLEWIGEIDHSGSTNYNPALKSRLTISVDTSKNQFSLKLSSVTAADTAVYYCARAGSGGYEDWFDPWGQGTLVTVSS VL: QSVLTQPPSVSGAPGQRVTISCTGSSSNIGTGYNVHWYQQFPRTDPKLLIYVYNIRPSGVPDRFSGSRSGTSASLAITGLQTEDEADYYCQSYDSSLSGVVFGGGTKLTVLG							no binding (tested: 1 µg)	no binding (tested: 1 µg)	no binding (tested: 1 µg)	no binding (tested: 1 µg)	no binding	no binding	no binding	no binding	no binding	
mAb 2C1.1 (antibody, human IgG2, lambda, V domains shown, fully human IgG2 lambda, Campaign 1; tested hybridoma-purified and recombinant; also called anti-hOrai1 mAb 2C1.1) VH: QVQLQQWGAGLLKPSETLSLTCAVYGGSFSGYYWSWIRQPPGKGLEWIGEIDHSGSTNYNPALKSRLTISVDTSKNQFSLKLSSVTAADTAVYYCARAGSGGYEDWFDPWGQGTLVTVSS VL: QSVLTQPPSVSGAPGQRVTISCTGSSSNIGAGYNVHWYQQFPRTDPKLLIYVYNIRPSGVPDRFSGSRSGTSASLAITGLQTEDEADYYCQSYDSSLSGVVFGGGTKLTVLG							no binding (tested: 1 µg)	no binding (tested: 1 µg)	no binding (tested: 1 µg)	no binding (tested: 1 µg)	no binding	no binding	no binding	no binding	no binding	
mAb 2B4.1 (antibody, human IgG2, lambda, V domains shown) VH: QVQLVQSGAEVKKPGASVKVSCKASGYTFTDYYMHWVRQAPGQGLEWMGWINPNSGGTNYVQKFQDRVTMTRDTSITTAYMELTRLRSDDTAVYYCAREEGDYGMDVWGQGTTVTVSS VL: QSVLTQPPSVSGAPGQRVTISCTGSNSNIGTGYDVHWYQKLPGTAPRLLIYSHFNRPSGVPDRFSGSTSGTSASLAITGLQAEDEADYYCQSYDSSLSGSVFGGGTKLTVLG							no binding (tested: 1 µg)	no binding (tested: 1 µg)	no binding (tested: 1 µg)	no binding (tested: 1 µg)	no binding	no binding	no binding	no binding	no binding	binding result [12]: no binding; binding result [13]: no binding

From patent US20120231006A1 (Amgen, published 2012)
